The labels stand for the following.
B1: NemA_Ec (Escherichia coli K-12) (protein)
chain: MSSEKLYSPLKVGAITAANRIFMAPLTRLRSIEPGDIPTPLMAEYYRQRASAGLIISEATQISAQAKGYAGAPGIHSPEQIAAWKKITAGVHAENGHMAVQLWHTGRISHASLQPGGQAPVAPSALSAGTRTSLRDENGQAIRVETSMPRALELEEIPGIVNDFRQAIANAREAGFDLVELHSAHGYLLHQFLSPSSNHRTDQYGGSVENRARLVLEVVDAGIEEWGADRIGIRVSPIGTFQNTDNGPNEEADALYLIEQLGKRGIAYLHMSEPDWAGGEPYTDAFREKVRARFHGPIIGAGAYTVEKAETLIGKGLIDAVAFGRDWIANPDLVARLQRKAELNPQRAESFYGGGAEGYTDYPTL
notes: free enzyme (not PhaC fusion)
B2: YcnD_Bs (Bacillus subtilis subsp. subtilis str. 168) (protein)
chain: MNEVIKSLTDHRSIRSYTDEPVAQEQLDQIIEAVQSAPSSINGQQVTVITVQDKERKKKISELAGGQPWIDQAPVFLLFCADFNRAKIALEDLHDFKMEITNGLESVLVGAVDAGIALGTATAAAESLGLGTVPIGAVRGNPQELIELLELPKYVFPLSGLVIGHPADRSAKKPRLPQEAVNHQETYLNQDELTSHIQAYDEQMSEYMNKRTNGKETRNWSQSIASYYERLYYPHIREMLEKQGFKVEK
B3: YdgI_Bs (Bacillus subtilis subsp. subtilis str. 168) (protein)
chain: MIKTNDFMEIMKGRRSIRNYDPAVKISKEEMTEILEEATTAPSSVNAQPWRFLVIDSPEGKEKLAPLASFNQTQVTTSSAVIAVFADMNNADYLEEIYSKAVELGYMPQEVKDRQIAALTAHFEKLPAQVNRETILIDGGLVSMQLMLTARAHGYDTNPIGGYDKENIAETFGLDKERYVPVMLLSIGKAADEGYASYRLPIDTIAEWK
B4: Frp_Vh1 (Vibrio harveyi) (protein)
chain: MNNTIETILAHRSIRKFTAVPITDEQRQTIIQAGLAASSSSMLQVVSIVRVTDSEKRNELAQFAGNQAYVESAAEFLVFCIDYQRHATINPDVQADFTELTLIGAVDSGIMAQNCLLAAESMGLGGVYIGGLRNSAAQVDELLGLPENSAVLFGMCLGHPDQNPEVKPRLPAHVVVHENQYQELNLDDIQSYDQTMQAYYASRTSNQKLSTWSQEVTGKLAGESRPHILPYLNSKGLAKR
B5: NfsA_Kp (Klebsiella pneumoniae) (protein)
chain: MTPTIELLRSHRSIRHFTDAPVSDEQRAEIIASAQAASTSSFLQCTSIIRITDPALRERLVPLTGGQQHVAQAAEFWVFCADFNRHLQICPQAQLGLAEQLLIGVVDTALLAQNALTAAESLGLGGVYIGGLRNSIEAVTELLELPQHVLPLFGLCLGWPADNPDIKPRMPAAMLVHENRYQPLDNALLAEYDEQLAHYYLSRGSNARRDTWSDHIRRTIVKESRPFILDYLHKQGWATR
B6: NfsB_Kp (Klebsiella pneumoniae subsp. pneumoniae MGH 78578) (protein)
chain: MDIVSVALKRYSTKAFDATKKLTAGEAEQLKTLLQYSPSSTNSQPWHFIVASTDEGKARVAKAASGTYVFNERKILDASHVVVFCAKTAMDDAWLQRVVDQEEADGRFATPDAKAANHKGRTFFADMHRKELKDDDQWMAKQVYLNVGNFLLGVAAMGLDAVPIEGVDFAILDEEFDLKAQGYTSLVVVPVGHHSAEDFNATLPKSRLPQSTTITEI
B7: MdaB_Ec (Escherichia coli K-12) (protein)
chain: SNILIINGAKKFAHSNGQLNDTLTEVADGTLRDLGHDVRIVRADSDYDVKAEVQNFLWADVVIWQMPGWWMGAPWTVKKYIDDVFTEGHGTLYASDGRTRKDPSKKYGSGGLVQGKKYMLSLTWNAPMEAFTEKDQFFHGVGVDGVYLPFHKANQFLGMEPLPTFIANDVIKMPDVPRYTEEYRKHLVEIFG
B8: ChrR_Pa (Pseudomonas aeruginosa PAO1) (protein)
chain: MSDDIKVLGISGSLRSGSYNSAALQEAIGLVPPGMSIELADISGIPLYNEDVYALGFPPAVERFREQIRAADALLFATPEYNYSMAGVLKNAIDWASRPPEQPFSGKPAAILGASAGRFGTARAQYHLRQTLVFLDVHPLNKPEVMISSAQNAFDAQGRLLDDKARELIQQQLQALQLWVRRLRG
B9: NfsB_Vv (Vibrio vulnificus YJ016) (protein)
chain: MTIVQAAQSRYSTKAFDASRKLPEEKVAAVKELIRMSASSVNSQPWHFIVASSEEGKARIAKATQGGFAFNERKILDASHVVVFCAKTAIDEAYLLDLLESEDKDGRFADVEAKNGMHAGRSFFVNMHRFDLKDAHHWMEKQVYLNVGTLLLGASAMEIDAVPIEGFDAKVLDEEFGLREKGFTSVVIVPLGYHSEDDFNAKLPKSRWSAETVFTEI
B10: AzoR_Ec (Escherichia coli K-12) (protein)
chain: SKVLVLKSSILAGYSQSNQLSDYFVEQWREKHSADEITVRDLAANPIPVLDGELVGALRPSDAPLTPRQQEALALSDELIAELKAHDVIVIAAPMYNFNISTQLKNYFDLVARAGVTFRYTENGPEGLVTGKKAIVITSRGGIHKDGPTDLVTPYLSTFLGFIGITDVKFVFAEGIAYGPEMAAKAQSDAKAAIDSIVSA

Substrate in one series: NC(=O)C1=CN([C@@H]2O[C@H](COP(=O)(O)OP(=O)(O)OC[C@H]3O[C@@H](n4cnc5c(N)ncnc54)[C@H](O)[C@@H]3O)[C@@H](O)[C@H]2O)C=CC1
The series is described as follows: diphenylcarbazide Cr(VI) assay, Lineweaver-Burk. The series is classed as biochemical, Escherichia coli. The following applies: 150 µM Cr(VI), 22°C, pH 7.0, free enzyme, varied: cofactor.
One may read the Km as the concentration of substrate that gives half-maximal velocity. Regarding B1, the Km was found to be 450 ± 30 µM.

Substrate in the next series: [O]=[Cr](=[O])([OH])[OH]
The series is described as follows: purified protein. The following applies: 1 mM NADH, 50 mM Tris-Cl pH 7.0, 22°C.
As a reminder, the kcat is the number of substrate molecules converted per active site and unit of time at saturation. As a reminder, the kcat/Km is the turnover number divided by the Michaelis constant. B2: the Km was 73 ± 2 µM, the kcat is 0.37 s⁻¹ and the kcat/Km is 5000 M⁻¹ s⁻¹.
B3: the Km is 63 ± 1 µM, the kcat amounted to 0.48 s⁻¹ and the kcat/Km was found to be 7700 M⁻¹ s⁻¹.
On to B4, for which the Km came out at 3.8 ± 0.5 µM, the kcat was determined as 0.32 s⁻¹ and the specificity constant (kcat/Km) was found to be 84000 M⁻¹ s⁻¹.
For B5 the same measures were 1.7 ± 1.0 µM, 0.12 s⁻¹ and 69000 M⁻¹ s⁻¹.
For the protein B6, the Km worked out at 47 ± 4 µM, the kcat was found to be 0.37 s⁻¹ and the kcat/Km stood at 7800 M⁻¹ s⁻¹.
Turning to B7, the Km was found to be 170 ± 120 µM, the kcat turned out to be 0.2 s⁻¹ and the kcat/Km stood at 1100 M⁻¹ s⁻¹.
Turning to B8, the Michaelis constant (Km) is 1300 ± 100 µM, the kcat came out at 1.5 s⁻¹ and the kcat/Km was 1100 M⁻¹ s⁻¹.
Regarding B9, the Km worked out at 2200 µM, the kcat turned out to be 0.8 s⁻¹ and the kcat/Km is 360 M⁻¹ s⁻¹.

The same series, now with this note: 1 mM NADH, 50 mM Tris-Cl pH 7.0, 22°C, free enzyme.
For B1, the Michaelis-Menten constant (Km) worked out at 16 ± 9 µM, the kcat turned out to be 1 s⁻¹ and the kcat/Km was 110000 M⁻¹ s⁻¹.

Substrate in a further series: [O]=[Cr](=[O])([OH])[OH]
The series is described as follows: cells, lysate or membranes named. The following applies: 1 mM NADH, 50 mM Tris-Cl pH 7.0, 22°C, no lysate or lawsone added.
For the protein B10, the Km came to 380 µM, the catalytic constant (kcat) came out at 0.03 s⁻¹ and the kcat/Km is 87 M⁻¹ s⁻¹.

Source of the values: PMC3596305, “Escherichia coli NemA Is an Efficient Chromate Reductase That Can Be Biologically Immobilized to Provide a Cell Free System for Remediation of Hexavalent Chromium” (PLoS ONE, 2013).
